Laboratory results from paper PMC1540706 (2006).

B1: Eps15 P-short peptide [not stated] / human β2-appendage (700–937) used for ITC [human] (parent complex)
chain 1: SFGDGFADFSTL
chain 2: IGMAPGGYVAPKAVWLPAVKAKGLEISGTFTHRQGHIYMEMNFTNKALQHMTDFAIQFNKNSFGVIPSTPLAIHTPLMPNQSIDVSLPLNTLGPVMKMEPLNNLQVAVKNNIDVFYFSCLIPLNVLFVEDGKMERQVFLATWKDIPNENELQFQIKECHLNADTVSSKLQNNNVYTIAKRNVEGQDMLYQSLKLTNGIWILAELRIQPGNPNYTLSLKCRAPEVSQYIYQVYDSILKN
B2: 6× His human Eps15-MD (530–791) [human] / human β2-appendage (700–937) used for ITC [human] (parent complex)
chain 1: STSSSETANLNEHVEGQSNLESEPIHQESPARSSPELLPSGVTDENEVTTAVTEKVCSELDNNRHSKEEDPFNVDSSSLTGPVADTNLDFFQSDPFVGSDPFKDDPFGKIDPFGGDPFKGSDPFASDCFFRQSTDPFATSSTDPFSAANNSSITSVETLKHNDPFAPGGTVVAASDSATDPFASVFGNESFGGGFADFSTLSKVNNEDPFRSATSSSVSNVVITKNVFEETSVKSEDEPPALPPKIGTPTRPCPLPPGKRSI
chain 2: B1 chain 2
B3: β-arrestin P-long peptide [not stated] / human β2-appendage (700–937) used for ITC [human] (parent complex)
chain 1: DDDIVFEDFARQRLKGMKDD
chain 2: B1 chain 2

Variants of: B1
Assay: ITC

Row | Variant | Kd [µM]
1 | chain 2 IGMAPGGYVAPKAVWLPAVKAKGLEISGTFTHRQGHIYMEMNFTNKALQHMTDFAIQFNKNSFGVIPSTPLAIHTPLMPNQSIDVSLPLNTLGPVMKMEPLNNLQVAVKNNIDVFYFSCLIPLNVLFVEDGKMERQVFLATWKDIPNENELQFQIKECHLNADTVSSKLQNNNVYTIAKRNVEGQDMLVQSLKLTNGIWILAELRIQPGNPNYTLSLKCRAPEVSQYIYQVYDSILKN [chain 2 Y189V] | 59

Variants of: B2
Assay: ITC; stoichiometry (1.9)

Row | Variant | Kd [µM]
2 | chain 2 IGMAPGGYVAPKAVWLPAVKAKGLEISGTFTHRQGHIYMEMNFTNKALQHMTDFAIQFNKNSFGVIPSTPLAIHTPLMPNQSIDVSLPLNTLGPVMKMEPLNNLQVAVKNNIDVFYFSCLIPLNVLFVEDGKMERQVFLATWKDIPNENELQFQIKECHLNADTVSSKLQNNNVYTIAKRNVEGQDMLVQSLKLTNGIWILAELRIQPGNPNYTLSLKCRAPEVSQYIYQVYDSILKN [chain 2 Y189V] | 11

Variants of: B3
Assay: ITC

Row | Variant | Kd [µM]
3 | chain 2 IGMAPGGYVAPKAVWLPAVKAKGLEISGTFTHRQGHIYMEMNFTNKALQHMTDFAIQFNKNSFGVIPSTPLAIHTPLMPNQSIDVSLPLNTLGPVMKMEPLNNLQVAVKNNIDVFAFSCLIPLNVLFVEDGKMERQVFLATWKDIPNENELQFQIKECHLNADTVSSKLQNNNVYTIAKRNVEGQDMLYQSLKLTNGIWILAELRIQPGNPNYTLSLKCRAPEVSQYIYQVYDSILKN [chain 2 Y116A] | 1.7

Variants of: B3
Assay: ITC; stoichiometry (1.2)

Row | Variant | Kd [µM]
4 | chain 2 IGMAPGGYVAPKAVWLPAVKAKGLEISGTFTHRQGHIYMEMNFTNKALQHMTDFAIQFNKNSFGVIPSTPLAIHTPLMPNQSIDVSLPLNTLGPVMKMEPLNNLQVAVKNNIDVFYFSCLIPLNVLFVEDGKMERQVFLATWKDIPNENELQFQIKECHLNADTVSSKLQNNNVYTIAKANVEGQDMLYQSLKLTNGIWILAELRIQPGNPNYTLSLKCRAPEVSQYIYQVYDSILKN [chain 2 R180A] | 0.17
